How the values were obtained:
[1] = target: T1, FZD7 CRD (Homo sapiens, UniProt O75084); test: Immunofluorescence of anti-FZD5 Fab binding to CHO cells overexpressing Frizzled CRD; parameters: key: −: no binding; +: very weak binder; ++: weak binder; +++: good binder; ++++: very good binder
T1 construct: D45-S169; GPI anchor signal (C); expressed in transfected cells; host or cells: CHO cells, lentiviral pLenti-puro
Outline: (§1)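 CHO cell lines each displaying a myc-tagged Frizzled CRD on the plasma membrane via GPI anchor. Recombinant anti-FZD5 Fab binding detected by immunofluorescence and flow cytometry.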

[2] = target: T2, FZD3 CRD (Homo sapiens, UniProt Q9NPG1); test: as above; parameters: key: −: no binding; +: very weak binder; ++: weak binder; +++: good binder; ++++: very good binder
T2 construct: CRD of FZD1, FZD2, FZD3, FZD4, FZD5, FZD6, FZD7, FZD8, FZD9 or FZD10; GPI anchor signal (C); expressed in transfected cells; host or cells: CHO cells, lentiviral pLenti-puro
T2 sequence (Q9NPG1 23-136 limits assumed): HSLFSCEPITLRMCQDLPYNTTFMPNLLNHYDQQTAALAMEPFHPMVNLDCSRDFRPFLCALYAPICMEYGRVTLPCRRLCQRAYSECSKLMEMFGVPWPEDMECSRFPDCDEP
Outline: as §1

[3] = target: T3, FZD1 CRD (Homo sapiens, UniProt Q9UP38); test: as above; parameters: key: −: no binding; +: very weak binder; ++: weak binder; +++: good binder; ++++: very good binder
T3 construct: D112-P238; GPI anchor signal (C); expressed in transfected cells; host or cells: CHO cells, lentiviral pLenti-puro
Outline: as §1

[4] = target: T4, FZD8 CRD (Homo sapiens, UniProt Q9H461); test: as above; parameters: key: −: no binding; +: very weak binder; ++: weak binder; +++: good binder; ++++: very good binder
T4 construct: K31-D155; GPI anchor signal (C); expressed in transfected cells; host or cells: CHO cells, lentiviral pLenti-puro
T4 sequence (Q9H461 31-155): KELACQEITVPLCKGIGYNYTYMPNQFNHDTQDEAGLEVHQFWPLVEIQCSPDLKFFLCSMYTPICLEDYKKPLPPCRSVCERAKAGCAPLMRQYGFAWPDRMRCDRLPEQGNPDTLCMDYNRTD
Outline: as §1

[5] = system: HPAFII cells; test: Effect of anti-FZD5 Fabs on proliferation of pancreatic cancer cell lines (percent growth inhibition); type: cell-based, human; settings: for percent growth inhibition, HPAFII 2 μg/ml: Fab 2 μg/ml; for percent growth inhibition, HPAFII 10 μg/ml: Fab 10 μg/ml
Procedure: (§2) The effect of presently disclosed anti-FZD5 Fabs on proliferation of RNF43 loss-of-function mutant pancreatic cancer cell lines HPAFII, PATU8988S and ASPC-1; and on pancreatic cancer cell line RWP1, was tested at […] and 10 μg/ml.

[6] = system: PATU8988S cells; test: as above; type: cell-based, human; settings: Fab 10 μg/ml
Procedure: as §2

[7] = system: ASPC-1 cells; test: as above; type: cell-based, human; settings: Fab 10 μg/ml
Procedure: as §2

[8] = system: RWP1 cells; test: as above; type: cell-based, human; settings: Fab 10 μg/ml
Procedure: as §2

Molecule	Immunofluorescence binding, Frizzled CRD overexpressed on CHO cells: FZD7 [1]	Immunofluorescence binding, Frizzled CRD overexpressed on CHO cells: FZD3 [2]	Immunofluorescence binding, Frizzled CRD overexpressed on CHO cells: FZD1 [3]	Immunofluorescence binding, Frizzled CRD overexpressed on CHO cells: FZD8 [4]	percent growth inhibition, HPAFII 2 μg/ml [5]	percent growth inhibition, HPAFII 10 μg/ml [5]	percent growth inhibition, PATU8988s 10 μg/ml [6]	percent growth inhibition, ASPC-1 10 μg/ml [7]	percent growth inhibition, RWP1 10 μg/ml [8]
Fab-2919: anti-FZD5 Fab with antibody variable region Fv-2919; CDR SEQ ID NOs: 35, 36, 58, 97, 134, 155 (antibody, V domains shown) VH: EVQLVESGGGLVQPGGSLRLSCAASGFNISYSYIHWVRQAPGKGLEWVASIYSSSGSTSYADSVKGRFTISADTSKNTAYLQMNSLRAEDTAVYYCARGAIDYWGQGTLVTVSS VL: DIQMTQSPSSLSASVGDRVTITCRASQSVSSAVAWYQQKPGKAPKLLIYSASSLYSGVPSRFSGSRSGTDFTLTISSLQPEDFATYYCQQWYSSGHVLITFGQGTKVEIK	−	−	−	++	16.25%	36.80%	−11.49%	35.99%	22.54%
Fab-2920: anti-FZD5 Fab with antibody variable region Fv-2920; CDR SEQ ID NOs: 35, 36, 59, 98, 135, 170 (antibody, V domains shown) VH: EVQLVESGGGLVQPGGSLRLSCAASGFNISYYYIHWVRQAPGKGLEWVASIYPSSGSTSYADSVKGRFTISADTSKNTAYLQMNSLRAEDTAVYYCARGGMDYWGQGTLVTVSS VL: DIQMTQSPSSLSASVGDRVTITCRASQSVSSAVAWYQQKPGKAPKLLIYSASSLYSGVPSRFSGSRSGTDFTLTISSLQPEDFATYYCQQWFAGALITFGQGTKVEIK	−	−	−	+	29.48%	32.93%	−5.60%	40.69%	−3.09%
Fab-2921: anti-FZD5 Fab with antibody variable region Fv-2921; CDR SEQ ID NOs: 35, 36, 60, 98, 136, 162 (antibody, V domains shown) VH: EVQLVESGGGLVQPGGSLRLSCAASGFNISYYYIHWVRQAPGKGLEWVASIYPSSGSTSYADSVKGRFTISADTSKNTAYLQMNSLRAEDTAVYYCARGAMDYWGQGTLVTVSS VL: DIQMTQSPSSLSASVGDRVTITCRASQSVSSAVAWYQQKPGKAPKLLIYSASSLYSGVPSRFSGSRSGTDFTLTISSLQPEDFATYYCQQWYAGSLITFGQGTKVEIK	−	−	−	+	30.70%	44.23%	−16.29%	47.95%	−0.10%
Fab-2922: anti-FZD5 Fab with antibody variable region Fv-2922; CDR SEQ ID NOs: 35, 36, 61, 99, 137, 171 (antibody, V domains shown) VH: EVQLVESGGGLVQPGGSLRLSCAASGFNIYSSYMHWVRQAPGKGLEWVASISPYSGYTSYADSVKGRFTISADTSKNTAYLQMNSLRAEDTAVYYCARTVRGSKKPYFSGWAMDYWGQGTLVTVSS VL: DIQMTQSPSSLSASVGDRVTITCRASQSVSSAVAWYQQKPGKAPKLLIYSASSLYSGVPSRFSGSRSGTDFTLTISSLQPEDFATYYCQQSFVYPYLITFGQGTKVEIK	−	−	−	+	8.28%	8.14%	−24.14%	27.72%	7.59%
Fab-2923: anti-FZD5 Fab with antibody variable region Fv-2923; CDR SEQ ID NOs: 35, 36, 62, 100, 138, 162 (antibody, V domains shown) VH: EVQLVESGGGLVQPGGSLRLSCAASGFNLYYYYMHWVRQAPGKGLEWVASIYSSSGSTSYADSVKGRFTISADTSKNTAYLQMNSLRAEDTAVYYCARGAMDYWGQGTLVTVSS VL: DIQMTQSPSSLSASVGDRVTITCRASQSVSSAVAWYQQKPGKAPKLLIYSASSLYSGVPSRFSGSRSGTDFTLTISSLQPEDFATYYCQQWYGYSALITFGQGTKVEIK	−	−	−	+	15.14%	18.17%	−19.05%	34.00%	40.29%
Fab-2924: anti-FZD5 Fab with antibody variable region Fv-2924; CDR SEQ ID NOs: 35, 36, 63, 101, 139, 153 (antibody, V domains shown) VH: EVQLVESGGGLVQPGGSLRLSCAASGFNISYSYIHWVRQAPGKGLEWVASIYSYYSSTSYADSVKGRFTISADTSKNTAYLQMNSLRAEDTAVYYCARGALDYWGQGTLVTVSS VL: DIQMTQSPSSLSASVGDRVTITCRASQSVSSAVAWYQQKPGKAPKLLIYSASSLYSGVPSRFSGSRSGTDFTLTISSLQPEDFATYYCQQWYSGHSLITFGQGTKVEIK	−	−	−	+	−10.43%	−5.35%	−21.08%	16.29%	48.95%
Fab-2927: anti-FZD5 Fab with antibody variable region Fv-2927; CDR SEQ ID NOs: 35, 36, 66, 104, 142, 174 (antibody, V domains shown) VH: EVQLVESGGGLVQPGGSLRLSCAASGFNIYYSSMHWVRQAPGKGLEWVASIYPSYGYTSYADSVKGRFTISADTSKNTAYLQMNSLRAEDTAVYYCARYGYYGFDYWGQGTLVTVSS VL: DIQMTQSPSSLSASVGDRVTITCRASQSVSSAVAWYQQKPGKAPKLLIYSASSLYSGVPSRFSGSRSGTDFTLTISSLQPEDFATYYCQQWGSHGYLITFGQGTKVEIK	++++	−	+++	+	6.46%	−7.63%	−23.95%	31.00%	70.38%
Fab-2935: anti-FZD5 Fab with antibody variable region Fv-2935; CDR SEQ ID NOs: 35, 36, 74, 111, 150, 178 (antibody, V domains shown) VH: EVQLVESGGGLVQPGGSLRLSCAASGFNIYYYYIHWVRQAPGKGLEWVASIYPSSGSTSYADSVKGRFTISADTSKNTAYLQMNSLRAEDTAVYYCARAAFDYWGQGTLVTVSS VL: DIQMTQSPSSLSASVGDRVTITCRASQSVSSAVAWYQQKPGKAPKLLIYSASSLYSGVPSRFSGSRSGTDFTLTISSLQPEDFATYYCQQWYGGYALITFGQGTKVEIK	−	−	−	+	−9.18%	−10.62%	−22.12%	24.63%	10.15%
